The values that follow come from patent US20020048794A1 (published 2002).

In test [1] the target is T1, VHL (von Hippel-Lindau tumor suppressor protein), full-length (Homo sapiens (Human), UniProt P40337 1-213, 35S-methionine labeled in the in vitro assays).
T1 construct: also called 35S-labeled VHL; 35S-labeled full-length VHL
The experiment in a line: co-immunoprecipitation with anti-FLAG, in vitro translated proteins.

Test [2] addresses T1, VHL (von Hippel-Lindau tumor suppressor …). Briefly: co-immunoprecipitation with anti-GAL4, in vitro translated proteins.
The target of test [3] is 35S-labeled, in vitro translated full length HIF-1 alpha (human, UniProt Q16665 1-826, 35S-methionine labeled). Described as above.

B1: FLAG-tagged mutant N-TAD of HIF-1 alpha (PYI triplet substituted with three aspartic acid residues) (other, not shown: small tags and cut ends)
chain: KLELVEKLFAEDTEAKNPFSTQDTDLDLEMLADDDPMDDDFQLRSFDQLSPLES
notes: also called mt N-TAD; PYI mutant N-TAD
As to B1, in test [1], the binding result is recorded as “no binding”.

B2: GAL4/HIF-1 alpha 778-826 (other)
chain: MKLLSSIEQACDICRLKKLKCSKEKPKCAKCLKNNWECRYSPKTKRSPLTRAHLTEVESRLERLEQLFLLIFPREDLDMILKMDSLQDIKALLTGLFVQDNVNKDAVTDRLASVETDMPLTLRQHRISATSSSEESSNKGQRQLTVSLACRLLGQSMDESGLPQLTSYDCEVNAPIQGSRNLLQGEELLRALDQVN
With B2, the binding result in test [2] is “no binding”.

B3: GAL4/VHL 114-154 fragment (other)
chain: MKLLSSIEQACDICRLKKLKCSKEKPKCAKCLKNNWECRYSPKTKRSPLTRAHLTEVESRLERLEQLFLLIFPREDLDMILKMDSLQDIKALLTGLFVQDNVNKDAVTDRLASVETDMPLTLRQHRISATSSSEESSNKGQRQLTVSGHLWLFRDAGTHDGLLVNQTELFVPSLNVDGQPIFANITLP
B3: the binding result in test [3] is given as “no binding”.
